This note sets out measurements from the supplement of paper PMC9170038.

In this series the test system is MS2 coat protein. As to the kind of experiment: apparent KD of MS2 coat protein; designed switch direction (-1 OFF switch, 1 ON switch): -1; higher = weaker reporter binding. In a few lines: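 Designed RNA switches with common flanks were transcribed on Illumina chips by stalled E. coli RNA polymerase and titrated with SNAP-549-labelled MS2 coat protein, from 0.7 or 1.5 nM doubling to 3 µM, in Tris-HCl pH 7.5 buffer with KCl, MgCl2, BSA, DTT, tRNA and Tween-20. Steps lasted 0.8–1.5 h (lowest) to 10–20 min (highest). Titrations ran without input, with 200 uM small-molecule ligand, or with an oligonucleotide input. Normalised cluster fluorescence was curve-fitted, and apparent KD is the per-design median over clusters.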

Setting [1] is: input ligand: microRNA oligo, concentration not stated.
[2] abbreviates: Eterna round: R95, input ligand: microRNA oligo, concentration not stated.
The mark [3] stands for this setting: Eterna round: R95, input ligand: FMN 200 uM.
Setting [4] is: Eterna round: R95, input ligand: none.

Consider “ACCAUGGUUGAAGCUAACAUGAGGAUCACCCAUGUAAGCUGCUAGGAUAUGCAGAGGCCCAGAAAGCAGAAGGAGCAGUACUGC [Diatzagequ] (Eterna round: R96, puzzle: Exclusion NG 3)”, for which the “apparent KD of MS2 coat protein” value was 14.2 nM (input ligand: FMN 200 uM), 10.6 nM under setting [1] and 14.9 nM (input ligand: none).

“UAAAUGUGAGGAUAUCAGGUGUGCUAGCGUACUGGUACAUCUGAGAAGGCACAUGAGGAUCACCCAUGUUCCUU [Mat - Exclusion 4 - Mod of JL - D49] (puzzle: Exclusion 4)”: the “apparent KD of MS2 coat protein” value under setting [2] came to 16.7 nM.

With “CUAAAUCAUGUAGGAUAUGCAUAGCGAAGCUAUGCAGAAGGACAUGAGGAUCACCCAUGUUCUUCCGUCUGAGUACAGACGGAA [Mat - Exclusion NG 1 - Mod of JL - D31] (Eterna round: R96, puzzle: Exclusion NG 1)”, the “apparent KD of MS2 coat protein” value was 288 nM (input ligand: FMN 200 uM), 30.6 nM under setting [1] and 34.1 nM (input ligand: none).

On to “GCGCGAAGGUAGGAUAUCGACGGAUCUUCCGGCCGAGAAGGACCCACAUGAGGAUCACCCAUGUGGUGAUCCUG [eternacac ex6r4 sub10] (Eterna round: R97, puzzle: Exclusion 6)”, for which the “apparent KD of MS2 coat protein” value (input ligand: FMN 200 uM) was 17.5 nM and the “apparent KD of MS2 coat protein” value (input ligand: none) was 16.5 nM.

“GAUUGACAUGAGGAUCACCCAUGUGAGGAUAUCGGCCGGACCUUGUUAGCUUCCACCGCGAGAAGGCACAUAGG [Exclusion 1 V31] (puzzle: Exclusion 1)”: the “apparent KD of MS2 coat protein” value under setting [2] turned out to be 25.3 nM.

For “AAUAACAGGCCGAUCCUAAACAUGAGGAUCACCCAUGUGCGCGUCUUGUAAAGUACUAUCACGAAAGUGAUAGUACA [Sensor v3, turn-off variant 1 (MOD of Eli's v1-59 v.3)] (puzzle: Sensor v3, turn-off variant 1)”, the “apparent KD of MS2 coat protein” value was 41.8 nM under setting [3], 37.1 nM under setting [2] and 43.7 nM under setting [4].

With “UAGUACAGAGGAUAUACAUGAGGAUCACCCAUGUGUUUCAGCUAGGAGACUAGCGAAAGUAGAAGGCUGUACUU [salish99_ex3_r4_009] (Eterna round: R97, puzzle: Exclusion 3)”, the “apparent KD of MS2 coat protein” value is, setting by setting: (input ligand: FMN 200 uM) 22.4 nM; (input ligand: none) 8.4 nM.

In the case of “ACAUGAGGAUCACCCAUGUCAGGCGGGUCCACUCCGGCUGUUGAGGAUAUAGUCCGGUAUCCGCGCUAGAAGGUGAGGGCCGGC [Aenatbe mod 24] (Eterna round: R96, puzzle: Exclusion NG 3)”, the “apparent KD of MS2 coat protein” value (input ligand: FMN 200 uM) was 20.6 nM, the “apparent KD of MS2 coat protein” value under setting [1] worked out at 15.4 nM and the “apparent KD of MS2 coat protein” value (input ligand: none) is 19.9 nM.

With “UGUUGUCGCGCAGGAUAUUGUCAACAGGCAGUAGGAUAUCCGAAAGGAGAAGGACCGCCAACAGGCGAGAAGGGCGGGACAACU [pwkr exNG2 2xF7 2xFMN.9] (Eterna round: R96, puzzle: Exclusion NG 2)”, the “apparent KD of MS2 coat protein” value is 32.1 nM (input ligand: FMN 200 uM), 35.7 nM under setting [1] and 16 nM (input ligand: none).

Consider “UUAAGUAUAGAGGAUAUAUAAUAUUUAUUAACUAUAGAAGGCUAUACAUGAGGAUCACCCAUGUAUAUUGGGAU [JR_Ex6_Sub067] (Eterna round: R97, puzzle: Exclusion 6)”, for which the “apparent KD of MS2 coat protein” value by setting is: (input ligand: FMN 200 uM) 59.1 nM; (input ligand: none) 41 nM.

“UUGUGCACGCUGCGAUCCUACAUGAGGAUCACCCAUGUGGUCUGGUGGCGUGGGUCACCGGACUUGGCUCGUCUUGG [salish99_S_TOV1_R5_076] (Eterna round: R97, puzzle: Sensor, turn-off variant 1)”: the “apparent KD of MS2 coat protein” value was 126 nM (input ligand: FMN 200 uM) and 138 nM (input ligand: none).

In the case of “AAUAACAGAGGAUAUACUGUUUUAUGUGUUUGUUGUUUUGAACAUGAGGAUCACCCAUGUAGAAGGCUGAUUAA [JMF 53] (Eterna round: R96, puzzle: Exclusion 2)”, the “apparent KD of MS2 coat protein” value runs as follows: (input ligand: FMN 200 uM) 38.4 nM; under setting [1], 31 nM; (input ligand: none) 38.5 nM.

Consider “CUUUUGUGAGGAUAUUAGUAGUAAAUGAAUAAAAUUAUUACUGAGAAGGCACAUGAGGAUCACCCAUGUUCCUU [Mat - Exclusion 4 - Eli Mod - D19] (Eterna round: R97, puzzle: Exclusion 4)”, for which the “apparent KD of MS2 coat protein” value (input ligand: FMN 200 uM) came to 83.6 nM and the “apparent KD of MS2 coat protein” value (input ligand: none) was 14.6 nM.

As to “AAUAAUCAUGUAGGAUAUGCGUGGCAAAGCUAUGCAGAAGGACAUGAGGAUCACCCAUGUUCUAGCGUCUGAGAACAGAUGCUA [Mat - Exclusion NG 1 - Mod of JL - D82] (Eterna round: R96, puzzle: Exclusion NG 1)”, the “apparent KD of MS2 coat protein” value amounted to 384 nM (input ligand: FMN 200 uM), 30.2 nM under setting [1] and 41.5 nM (input ligand: none).

With “AGAUGUAGAUACCGAUCCUACAUGAGGAUCACCCAUGUAGCUAGACGUGCACGCGUAGCUCGUCAGACUACCAGAAG [salish99_TOv1_r3_085] (puzzle: Sensor v3, turn-off variant 1)”, the “apparent KD of MS2 coat protein” value under setting [3] was 292 nM, the “apparent KD of MS2 coat protein” value under setting [2] turned out to be 147 nM and the “apparent KD of MS2 coat protein” value under setting [4] is 223 nM.

Take “GGCACACAUGAGGAUCACCCAUGUCAGGAUAUGUGGCGAUCGUCGAUAGACGAUAGCCACAGAAGGGACAGGCC [Mat - Exclusion 1 - Eli Mod - D22] (Eterna round: R97, puzzle: Exclusion 1)”: the “apparent KD of MS2 coat protein” value is, setting by setting: (input ligand: FMN 200 uM) 110 nM; (input ligand: none) 69.9 nM.

Turning to “UUUAAUUUUUUUUUUUUACAAGCUUUUUGCUCGUCUUAUACAUGAGGAUCACCCAUGUAAAUGGAGGGUAAAUUAUC [JMF 83] (puzzle: Sensor v3, turn-off variant 2)”, the “apparent KD of MS2 coat protein” value runs as follows: under setting [3], 14.8 nM; under setting [2], 32 nM; under setting [4], 11.1 nM.

On to “AAUUAUUUUUGAGGAUAUCGUGGUGAAACACCACGAGAAGGCGAGAUAAACAUGAGGAUCACCCAUGUGAGCCUGAUGCUUAUG [Ex NG1 #50] (Eterna round: R96, puzzle: Exclusion NG 1)”, for which the “apparent KD of MS2 coat protein” value under setting [1] is 18.1 nM.

In the case of “UAGGUGCAAGGAUAUCGCCCGGAAGACAUGAGGAUCACCCAUGUACCGGGUGAGUAUGGGCGAGAAGGUGCAUAUU [Usergete] (puzzle: Exclusion 5)”, the “apparent KD of MS2 coat protein” value is, setting by setting: under setting [3], 298 nM; under setting [2], 75.9 nM; under setting [4], 92 nM.

For “GAUUAUGCGAGCUUUAGGGACAUGAGGAUCACCCAUGUUCGUCUUAUUGGUCUAAGUGCACUGACAUACCUAAAUCU [JMF 84] (puzzle: Sensor v3, turn-off variant 1)”, the “apparent KD of MS2 coat protein” value is 20.2 nM under setting [3], 31.5 nM under setting [2] and 19.6 nM under setting [4].

With “AGUAGAUCUACGCUUGCGUGGAUCUGCAAUGCAGGUGUUACAUGAGGAUCACCCAUGUCCUCGUUUGCUCGUCUUAG [JL turnoff v2 99.11] (puzzle: Sensor v3, turn-off variant 2)”, the “apparent KD of MS2 coat protein” value turned out to be 145 nM under setting [3], 508 nM under setting [2] and 133 nM under setting [4].

Turning to “GAUUAACAUGAGGAUCACCCAUGUGAGGAUAUGGACUUGCCCACUUAACCAUUAGAGUCUAGAAGGCGCAUCUG [1986#25] (Eterna round: R97, puzzle: Exclusion 1)”, the “apparent KD of MS2 coat protein” value stood at 32.9 nM (input ligand: FMN 200 uM) and 29.8 nM (input ligand: none).

As for “AGAUGGCGAGGAUAUACAUGAGGAUCACCCAUGUGAAGAGAUAAAGUGAGGAAGAAAAGUAGAAGGCGCUGUCA [Mat - Exclusion 3 - Mod of Salish D24] (puzzle: Exclusion 3)”, the “apparent KD of MS2 coat protein” value under setting [3] was found to be 199 nM, the “apparent KD of MS2 coat protein” value under setting [2] was found to be 51.4 nM and the “apparent KD of MS2 coat protein” value under setting [4] came out at 40.9 nM.

For “ACAUGUUAUCCAUGAUAUCACAUGAGGAUCACCCAUGUUAUGGCGAUUUUGAGGUGUAAGUUUUGUGCUCGUCUUAU [JR_STOV1_Sub057] (Eterna round: R97, puzzle: Sensor, turn-off variant 1)”, the “apparent KD of MS2 coat protein” value by setting is: (input ligand: FMN 200 uM) 80.1 nM; (input ligand: none) 89.4 nM.

As for “GGGAUGUCAGGAUAUCCGAAAGUCUACCAAUACGGCAGACAGGAGAAGGGACAUGAGGAUCACCCAUGUAAAGA [Quatma] (puzzle: Exclusion 4)”, the “apparent KD of MS2 coat protein” value came out at 114 nM under setting [3], 36.7 nM under setting [2] and 52.4 nM under setting [4].

In the case of “CAGAAGUGAGGAUAUAUAUGUAAGUUUGAUCCAACAAGUAUACAUGAGGAUCACCCAUGUAGAAGGUGCUUCCC [Eternabot (L2) Solution 45] (Eterna round: R97, puzzle: Exclusion 2)”, the “apparent KD of MS2 coat protein” value (input ligand: FMN 200 uM) came out at 57.2 nM and the “apparent KD of MS2 coat protein” value (input ligand: none) worked out at 44.6 nM.

As for “GCAGUGCGAGGAUAUACAUGAGGAUCACCCAUGUGAGAAUAAGAAGUGAGGAAGAAAAGUAGAAGGCGCGUUGG [Mat - Exclusion 3 - Mod of Salish D66] (puzzle: Exclusion 3)”, the “apparent KD of MS2 coat protein” value reads like this: under setting [3], 77.5 nM; under setting [2], 36.4 nM; under setting [4], 59.6 nM.

For the sequence “UAUCGGCGGACCGAGGCUUUUUGCUCGUCUUAUGCUAUGACAUGAGGAUCACCCAUGUGGUGGUGGUCCGUUGUAGU [JL ViennaUCT Bitein mod 10] (puzzle: Sensor v3, turn-off variant 2)”, the “apparent KD of MS2 coat protein” value under setting [3] is 64.5 nM, the “apparent KD of MS2 coat protein” value under setting [2] was determined as 12.6 nM and the “apparent KD of MS2 coat protein” value under setting [4] came to 48.1 nM.

“AAUAAAACAUAGGAUAUCGAAUUUAUUAUUUAACGAGAAGGAUGAACAUGAGGAUCACCCAUGUGGUAUCAUGG [Mat - Exclusion 6 - JL Mod - D24] (puzzle: Exclusion 6)”: the “apparent KD of MS2 coat protein” value reads like this: under setting [3], 258 nM; under setting [2], 190 nM; under setting [4], 207 nM.
